According to US20150203577A1 (Chugai, published 2015):
Read-outs that look alike come from different tables or passages of the source.

T1: mouse FcγRII extracellular domain, C-terminal His tag (mouse, UniProt P08101 30-210)
T1 construct: Whole entry named; also called mFcγRII; mFcgRII
T1 sequence: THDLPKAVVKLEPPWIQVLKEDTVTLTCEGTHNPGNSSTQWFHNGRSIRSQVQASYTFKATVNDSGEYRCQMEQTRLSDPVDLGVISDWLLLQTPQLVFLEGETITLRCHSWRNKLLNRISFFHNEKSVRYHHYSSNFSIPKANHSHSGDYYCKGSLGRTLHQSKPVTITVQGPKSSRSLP

T2: mouse FcγRIII extracellular domain, C-terminal His tag (mouse, UniProt P08508 31-215)
T2 construct: Whole entry named; also called mFcγRIII; mFcgRIII
T2 chain: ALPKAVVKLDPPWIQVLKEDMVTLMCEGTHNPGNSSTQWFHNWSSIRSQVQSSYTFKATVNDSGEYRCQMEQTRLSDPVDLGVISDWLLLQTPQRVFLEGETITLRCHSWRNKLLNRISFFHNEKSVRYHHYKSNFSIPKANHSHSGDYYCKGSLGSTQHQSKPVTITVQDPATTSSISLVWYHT

T3: mouse FcγRII (mouse, UniProt P08101 30-210)
T3 construct: also called mFcγRII; mFcgRII
T3 sequence: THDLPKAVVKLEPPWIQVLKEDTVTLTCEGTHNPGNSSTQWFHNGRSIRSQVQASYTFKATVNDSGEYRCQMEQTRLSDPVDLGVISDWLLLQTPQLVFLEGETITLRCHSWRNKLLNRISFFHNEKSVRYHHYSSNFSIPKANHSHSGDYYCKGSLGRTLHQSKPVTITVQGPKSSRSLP


How the values were obtained:
[1] = target: T1, mouse FcγRII extracellular domain, …; experiment: SPR (Biacore T200)
Source text: (§1) The antibody H chain variable region used was the variable region H237 (SEQ ID NO: 1) of the H chain VH3-IgG1 of the anti-IL-6 receptor antibody Fv4-IgG1 described in WO2009/125825. The antibody L chain commonly used was the L chain MRAL-k0 (SEQ ID NO: 2) of the anti-IL-6 receptor antibody tocilizumab. […] These variants were expressed and purified by the method of Reference Example 1 and evaluated for their binding to mFcγRII and mFcγRIII by the method of Reference Example 2 using Biacore T200.
(§2) Each altered antibody was analyzed for its interaction with each Fcγ receptor prepared above using Biacore T100 (GE Healthcare Japan Corp.), Biacore T200 (GE Healthcare Japan Corp.), Biacore A100, or Biacore 4000. The running buffer used was HBS-EP+ (GE Healthcare Japan Corp.). The assay temperature was set to 25° C. The sensor chips used were chips prepared by immobilizing Protein L (ACTIGEN or BioVision) onto Series S Sensor Chip CM5 (GE Healthcare Japan Corp.) or Series S Sensor Chip CM4 (GE Healthcare Japan Corp.) by the amine coupling method.

[2] = target: T2, mouse FcγRIII extracellular domain, …; experiment: SPR (Biacore T200)
Source text: as §1, §2

mouse FcγRII [3] = target: T3, mouse FcγRII; experiment: told of the L104-mk1 form; SPR was run on the MRAL-k0 form
[4] = target: T2, mouse FcγRIII extracellular domain, …; experiment: SPR (Biacore T200)
[5] = target: T1, mouse FcγRII extracellular domain, …; experiment: SPR (Biacore T200); KD of H237-mIgG1/MRAL-k0 / KD of variant
[6] = target: T1, mouse FcγRII extracellular domain, …; experiment: as above; remark: listed apart in the source
mouse FcγRII [7] = target: T3, mouse FcγRII; experiment: told of the L104-mk1 form; SPR (Table 28) was run on the MRAL-k0 form

Row | Binder | binding result [2] | binding result [4] | relative mFcγRII-binding activity (mIgG1 = 1) [5] [fold] | other results
1 | H237-MB590/MRAL-k0 (antibody, mouse IgG1, kappa, copies: 2 + 2) heavy: QVQLQESGPGLVKPSETLSLTCAVSGHSISHDHAWSWVRQPPGEGLEWIGFISYSGITNYNPSLQGRVTISRDNSKNTLYLQMNSLRAEDTAVYYCARSLARTTAMDYWGEGTLVTVSSAKTTPPSVYPLAPGSAAQTNSMVTLGCLVKGYFPEPVTVTWNSGSLSSGVHTFPAVLQSDLYTLSSSVTVPSSTWPSETVTCNVAHPASSTKVDKKIVPRDCGCKPCICTVPEVDSVFIFPPKPKDVLTITLTPKVTCVVVDIMKDDPEVQFSWFVDDVEVHTAQTQPREEQFNSTFRSVSELPIMHQDWLNGKEFKCRVNSAAFPAPIEKTISKTKGRPKAPQVYTIPPPKEQMAKDKVSLTCMITDFFPEDITVEWQWNGQPAENYKNTQPIMDTDGSYFVYSKLNVQKSNWEAGNTFTCSVLHEGLHNHHTEKSLSHSPGK light: not shown | no binding | – | – | binding result [1]: no binding
2 | H237-MB367/L104-mk1 (antibody, mouse IgG1, kappa, the text speaks of it for this form; copies: 2 + 2) heavy: QVQLQESGPGLVKPSETLSLTCAVSGHSISHDHAWSWVRQPPGEGLEWIGFISYSGITNYNPSLQGRVTISRDNSKNTLYLQMNSLRAEDTAVYYCARSLARTTAMDYWGEGTLVTVSSAKTTPPSVYPLAPGSAAQTNSMVTLGCLVKGYFPEPVTVTWNSGSLSSGVHTFPAVLQSDLYTLSSSVTVPSSTWPSETVTCNVAHPASSTKVDKKIVPRDCGCKPCICEANEVEDVFIFPPKPKDVLTITLTPKVTCVVVDISKDDPEVQFSWFVDDVEVHTAQTQPREEQFNSTFRSVSELPIMHQDWLNGKEFKCRVNSAAFPAPIEKTISKTKGRPKAPQVYTIPPPKEQMAKDKVSLTCMITDFFPEDITVEWQWNGQPAENYKNTQPIMDTDGSYFVYSKLNVQKSNWEAGNTFTCSVLHEGLHNHHTEKSLSHSPGK light: DIQMTQSPSSLSASVGDSVTITCQASTDISSHLNWYQQKPGKAPELLIYYGSHLLSGVPSRFSGSGSGTDFTFTISSLEAEDAATYYCGQGNRLPYTFGQGTKVEIERADAAPTVSIFPPSSEQLTSGGASVVCFLNNFYPKDINVKWKIDGSERQNGVLNSWTDQDSKDSTYSMSSTLTLTKDEYERHNSYTCEATHKTSTSPIVKSFNRNEC | – | – | – | binding result (mouse FcγRII [3]): binds
3 | H237-MB880/MRAL-k0 (antibody, mouse IgG1, kappa, copies: 2 + 2) heavy: QVQLQESGPGLVKPSETLSLTCAVSGHSISHDHAWSWVRQPPGEGLEWIGFISYSGITNYNPSLQGRVTISRDNSKNTLYLQMNSLRAEDTAVYYCARSLARTTAMDYWGEGTLVTVSSAKTTPPSVYPLAPGSAAQTNSMVTLGCLVKGYFPEPVTVTWNSGSLSSGVHTFPAVLQSDLYTLSSSVTVPSSTWPSETVTCNVAHPASSTKVDKKIVPRDCGCKPCICEVAEEELVFIFPPKPKDVLTITLTPKVTCVVVDISKDDPEVQFSWFVDDVEVHTAQTQPREEQFNSTFRSVSELPIMHQDWLNGKEFKCRVNSAAFPAPIEKTISKTKGRPKAPQVYTIPPPKEQMAKDKVSLTCMITDFFPEDITVEWQWNGQPAENYKNTQPIMDTDGSYFVYSKLNVQKSNWEAGNTFTCSVLHEGLHNHHTEKSLSHSPGK light: not shown | – | no binding | 0.34 | –
4 | H237-MB477/L104-mk1 (antibody, mouse IgG1, kappa, the text gives the rounded value for this form; copies: 2 + 2) heavy: QVQLQESGPGLVKPSETLSLTCAVSGHSISHDHAWSWVRQPPGEGLEWIGFISYSGITNYNPSLQGRVTISRDNSKNTLYLQMNSLRAEDTAVYYCARSLARTTAMDYWGEGTLVTVSSAKTTPPSVYPLAPGSAAQTNSMVTLGCLVKGYFPEPVTVTWNSGSLSSGVHTFPAVLQSDLYTLSSSVTVPSSTWPSETVTCNVAHPASSTKVDKKIVPRDCGCKPCICEPNEVEDVFIFPPKPKDVLTITLTPKVTCVVVDIAKDDPEVQFSWFVDDVEVHTAQTQPREEQFNSTFRSVSELPIMHQDWLNGKEFKCRVNSAAFPAPIEKTISKTKGRPKAPQVYTIPPPKEQMAKDKVSLTCMITDFFPEDITVEWQWNGQPAENYKNTQPIMDTDGSYFVYSKLNVQKSNWEAGNTFTCSVLHEGLHNHHTEKSLSHSPGK light: DIQMTQSPSSLSASVGDSVTITCQASTDISSHLNWYQQKPGKAPELLIYYGSHLLSGVPSRFSGSGSGTDFTFTISSLEAEDAATYYCGQGNRLPYTFGQGTKVEIERADAAPTVSIFPPSSEQLTSGGASVVCFLNNFYPKDINVKWKIDGSERQNGVLNSWTDQDSKDSTYSMSSTLTLTKDEYERHNSYTCEATHKTSTSPIVKSFNRNEC | – | – | – | relative mFcγRII-binding activity (H237-mIgG1/L104-mk1 = 1) (mouse FcγRII [7]): ~200 fold

Second part, led by results:

Row | binding result [2] | binding result [4] | relative mFcγRII-binding activity (mIgG1 = 1) [5] [fold] | Binder | other results
5 | – | no binding | 0.3 | H237-MB879/MRAL-k0 (antibody, mouse IgG1, kappa, copies: 2 + 2) heavy: QVQLQESGPGLVKPSETLSLTCAVSGHSISHDHAWSWVRQPPGEGLEWIGFISYSGITNYNPSLQGRVTISRDNSKNTLYLQMNSLRAEDTAVYYCARSLARTTAMDYWGEGTLVTVSSAKTTPPSVYPLAPGSAAQTNSMVTLGCLVKGYFPEPVTVTWNSGSLSSGVHTFPAVLQSDLYTLSSSVTVPSSTWPSETVTCNVAHPASSTKVDKKIVPRDCGCKPCICTPNEEELVFIFPPKPKDVLTITLTPKVTCVVVDISKDDPEVQFSWFVDDVEVHTAQTQPREEQFNSTFRSVSELPIMHQDWLNGKEFKCRVNSAAFPAPIEKTISKTKGRPKAPQVYTIPPPKEQMAKDKVSLTCMITDFFPEDITVEWQWNGQPAENYKNTQPIMDTDGSYFVYSKLNVQKSNWEAGNTFTCSVLHEGLHNHHTEKSLSHSPGK light: not shown | –
6 | no binding | – | – | H237-MB610/MRAL-k0 (antibody, mouse IgG1, kappa, copies: 2 + 2) heavy: QVQLQESGPGLVKPSETLSLTCAVSGHSISHDHAWSWVRQPPGEGLEWIGFISYSGITNYNPSLQGRVTISRDNSKNTLYLQMNSLRAEDTAVYYCARSLARTTAMDYWGEGTLVTVSSAKTTPPSVYPLAPGSAAQTNSMVTLGCLVKGYFPEPVTVTWNSGSLSSGVHTFPAVLQSDLYTLSSSVTVPSSTWPSETVTCNVAHPASSTKVDKKIVPRDCGCKPCICTVPEESEVDIFPPKPKDVLTITLTPKVTCVVVDISKDDPEVQFSWFVDDVEVHTAQTQPREEQFNSTFRSVSELPIMHQDWLNGKEFKCRVNSAAFPAPIEKTISKTKGRPKAPQVYTIPPPKEQMAKDKVSLTCMITDFFPEDITVEWQWNGQPAENYKNTQPIMDTDGSYFVYSKLNVQKSNWEAGNTFTCSVLHEGLHNHHTEKSLSHSPGK light: not shown | relative mFcγRII-binding activity (mIgG1 = 1) [6]: 0.23 fold
7 | – | no binding | 0.23 | H237-MB881/MRAL-k0 (antibody, mouse IgG1, kappa, copies: 2 + 2) heavy: QVQLQESGPGLVKPSETLSLTCAVSGHSISHDHAWSWVRQPPGEGLEWIGFISYSGITNYNPSLQGRVTISRDNSKNTLYLQMNSLRAEDTAVYYCARSLARTTAMDYWGEGTLVTVSSAKTTPPSVYPLAPGSAAQTNSMVTLGCLVKGYFPEPVTVTWNSGSLSSGVHTFPAVLQSDLYTLSSSVTVPSSTWPSETVTCNVAHPASSTKVDKKIVPRDCGCKPCICEVNEEELVFIFPPKPKDVLTITLTPKVTCVVVDISKDDPEVQFSWFVDDVEVHTAQTQPREEQFNSTFRSVSELPIMHQDWLNGKEFKCRVNSAAFPAPIEKTISKTKGRPKAPQVYTIPPPKEQMAKDKVSLTCMITDFFPEDITVEWQWNGQPAENYKNTQPIMDTDGSYFVYSKLNVQKSNWEAGNTFTCSVLHEGLHNHHTEKSLSHSPGK light: not shown | –
8 | no binding | – | – | H237-MB606/MRAL-k0 (antibody, mouse IgG1, kappa, copies: 2 + 2) heavy: QVQLQESGPGLVKPSETLSLTCAVSGHSISHDHAWSWVRQPPGEGLEWIGFISYSGITNYNPSLQGRVTISRDNSKNTLYLQMNSLRAEDTAVYYCARSLARTTAMDYWGEGTLVTVSSAKTTPPSVYPLAPGSAAQTNSMVTLGCLVKGYFPEPVTVTWNSGSLSSGVHTFPAVLQSDLYTLSSSVTVPSSTWPSETVTCNVAHPASSTKVDKKIVPRDCGCKPCICEVPEVDSVFIFPPKPKDVLTITLTPKVTCVVVDIMKDDPEVQFSWFVDDVEVHTAQTQPREEQFNSTFRSVSELPIMHQDWLNGKEFKCRVNSAAFPAPIEKTISKTKGRPKAPQVYTIPPPKEQMAKDKVSLTCMITDFFPEDITVEWQWNGQPAENYKNTQPIMDTDGSYFVYSKLNVQKSNWEAGNTFTCSVLHEGLHNHHTEKSLSHSPGK light: not shown | relative mFcγRII-binding activity (mIgG1 = 1) [6]: 0.05 fold
